Experimental data from PMC11275975, “Structural basis for transcription activation through cooperative recruitment of MntR” (Research Square, 2024).

Molecular target: the molecule itself
Assay: mass photometry; MntR alone, in the presence of 1 mM Mn2+; single peak; monomers to dimer

B1: manganese transport regulator (MntR) from B. subtilis, wild type (natural protein)
chain: MTTPSMEDYIEQIYMLIEEKGYARVSDIAEALAVHPSSVTKMVQKLDKDEYLIYEKYRGLVLTSKGKKIGKRLVYRHELLEQFLRIIGVDEEKIYNDVEGIEHHLSWNSIDRIGDLVQYFEEDDARKKDLKSIQKKTEHHNQ
notes: MntR, manganese transport regulator, Bacillus subtilis; dimer of 142-residue subunits; the cryo-EM maps show residues 3-142; Expressed from the pSMT3 vector as a His6-SUMO fusion; the tag was cut off with ULP-1; Assayed with 1 mM Mn2+ (two Mn2+ ions per subunit); also called WT MntR; MntR2 (dimer); source: E. coli BL21(DE3)NiCo, purified (TALON, ULP-1 cleavage, Ni-NTA)
  stoichiometry N: 2
